Assay results from US20060104978A1, “Methods and compositions for PDGF-C activation and inhibition” (LUDWIG INSTITUTE FOR CANCER RESEARCH, priority 2003, published 2006).

Tests used:
latent PDGF-DD = latent PDGF-DD (Homo sapiens, UniProt Q9GZP0); assay: In vitro cleavage of recombinant latent PDGF-DD with purified tPA; format: biochemical; set-up: Recombinant His6-tagged human PDGF-CC species and full-length PDGF-DD were expressed; made in house; details: 0.2-20 μg/ml tPA, 4 hours at 37° C., CNBr activated fibrinogen
Source text: (§1) A cotransfection assay was established to identify serine proteases able to cleave and activate latent PDGF-CC. Expression plasmids encoding the relevant enzymes and full-length PDGF-C were cotransfected into COS-1 cells, and aliquots of the conditioned media from the transfectants were subjected to SDS-PAGE and immunoblotting using antibodies to the growth factor domain of PDGF-C. […] As a specificity control, the ability of tPA and NT to use full-length PDGF-DD as the substrate in the cotransfection assay was analysed. […] One difference in the latter results, as compared with the results from the cotransfection assay, was that purified tPA generated a second intermediate species of 32 kDa using latent PDGF-CC as the substrate. It is possible that this intermediate is the result of digestion by plasmin contamination in the tPA preparation, since the size of the fragment is similar to that of plasmincleaved PDGF-CC previously reported (Li et al, 2000).
(§2) Recombinant latent PDGF-CC and PDGF-DD were digested with human tPA in 100 mM Tris-HCl pH 7.5, 0.1% Tween 20, and 0.1 mg/ml CNBr activated fibrinogen (Sigma) for 4 hours at 37° C. using 0.2-20 μg/ml tPA purified from human melanoma cells (T7776, Sigma). The digestions were analyzed by SDS-PAGE under reducing conditions and immunoblotted using affinity-purified antibodies against PDGF-C and PDGF-D, respectively (see above).

latent PDGF-CC [1] = target: T1, latent PDGF-CC (Homo sapiens, UniProt Q9NRA1); assay: In vitro cleavage of recombinant latent PDGF-CC with purified tPA; format: biochemical; set-up: His6-tagged recombinant full-length PDGF-CC; made in house; host or cells: Sf9 insect cells, baculovirus; details: 0.2-20 μg/ml tPA, 4 hours at 37° C., CNBr activated fibrinogen
Source text: as §1, §2

latent PDGF-CC [2] = target: T1, latent PDGF-CC; assay: Cotransfection assay in COS-1 cells: protease plus full-length PDGF-C; format: cell-based; set-up: cotransfected with full-length PDGF-C (Li et al, 2000), full-length PDGF-D (Bergsten et al, 2001); expressed in transfected cells; host or cells: COS-1 cells; details: COS-1 conditioned medium, immunoblot, 22 kDa species under reducing conditions
Source text: as §1, with “2000). […]” for “2000).”
To test the endogenous expression of PDGF-CC, subconfluent AG1523 cells and primary fibroblast cultures were cultured in serum-free DMEM overnight. […] In the case of the primary cultures, total protein concentration was measured and normalized (Bradford, 1976). […]

T1 sequence (Q9NRA1 23-345): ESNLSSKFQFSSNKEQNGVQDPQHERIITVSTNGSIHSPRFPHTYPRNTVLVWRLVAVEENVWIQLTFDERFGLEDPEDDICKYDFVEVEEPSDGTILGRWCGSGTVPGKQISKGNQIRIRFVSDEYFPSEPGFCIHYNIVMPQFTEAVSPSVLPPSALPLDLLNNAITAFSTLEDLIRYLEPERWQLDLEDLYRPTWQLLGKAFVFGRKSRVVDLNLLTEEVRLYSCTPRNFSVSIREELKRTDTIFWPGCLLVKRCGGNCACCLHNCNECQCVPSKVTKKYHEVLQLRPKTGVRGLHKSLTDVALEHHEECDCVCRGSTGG

cleavage of recombinant latent PDGF-DD by purified tPA (latent PDGF-DD): but not PDGF-DD, is a substrate for tPA
Substance: tPA: tissue plasminogen activator, secreted serine protease; expressed, purified from human melanoma cells or recombinant
cleavage of recombinant latent PDGF-CC by purified tPA (latent PDGF-CC [1]): PDGF-CC, but not PDGF-DD, is a substrate for tPA | cleavage of latent PDGF-CC by the coexpressed protease (latent PDGF-CC [2]): released the growth factor domain of latent PDGFCC
